Assay results: the Immune Epitope Database (IEDB)

Tests used:
HLA-B*39:01 = experiment: IEDB peptide-MHC binding, purified MHC/competitive/fluorescence; filed as Kd, often an IC50 or EC50 that approximates it; ≥ and ≤ were set here for values at or beyond the usual limits of such assays
HLA-A*02:12 = experiment: as above
HLA-A*02:19 = experiment: as above
HLA-A*02:16 = experiment: as above
HLA-B*51:01 = experiment: as above
HLA-A*29:02 = experiment: as above
HLA-A*68:02 [1] = experiment: as above
HLA-B*18:01 = experiment: as above
HLA-A*02:11 = experiment: as above
HLA-B*46:01 = experiment: as above
HLA-A*03:01 = experiment: as above
HLA-A*69:01 = experiment: as above
HLA-A*02:03 [2] = experiment: as above
HLA-A*02:01 [3] = experiment: as above
HLA-B*15:01 = experiment: as above
HLA-B*27:03 = experiment: as above
HLA-B*57:01 = experiment: as above
HLA-A*26:01 = experiment: as above
HLA-A*24:03 = experiment: as above
HLA-A*32:15 = experiment: as above
HLA-B*83:01 = experiment: as above
HLA-A*68:23 = experiment: as above
HLA-B*45:06 = experiment: as above
HLA-B*15:42 = experiment: as above
HLA-A*02:01 [4] = experiment: IEDB peptide-MHC binding, purified MHC/direct/fluorescence; filed as Kd, often an IC50 or EC50 that approximates it; ≥ and ≤ were set here for values at or beyond the usual limits of such assays; conditions: source organism: Human herpesvirus 4 strain B95-8
HLA-B*58:01 = experiment: IEDB peptide-MHC binding, purified MHC/competitive/fluorescence; filed as Kd, often an IC50 or EC50 that approximates it; ≥ and ≤ were set here for values at or beyond the usual limits of such assays
HLA-C*06:02 = experiment: IEDB peptide-MHC binding, purified MHC/direct/fluorescence; filed as Kd, often an IC50 or EC50 that approximates it; ≥ and ≤ were set here for values at or beyond the usual limits of such assays
HLA-C*05:01 = experiment: as above
HLA-C*12:03 = experiment: as above; conditions: source organism: Homo sapiens
HLA-C*08:02 = experiment: as above
HLA-C*14:02 = experiment: as above; conditions: source organism: dengue virus type 1
HLA-A*02:06 = experiment: IEDB peptide-MHC binding, purified MHC/competitive/radioactivity; filed as Kd, often an IC50 or EC50 that approximates it; ≥ and ≤ were set here for values at or beyond the usual limits of such assays; conditions: source organism: Dengue virus 2 Jamaica/1409/1983
HLA-A*02:17 = experiment: as above; conditions: source organism: Dengue virus 2 Jamaica/1409/1983
HLA-A*68:02 [5] = experiment: as above; conditions: source organism: Dengue virus 2 Jamaica/1409/1983
HLA-A*02:03 [6] = experiment: as above; conditions: source organism: Dengue virus 2 Jamaica/1409/1983
HLA-A*02:01 [7] = experiment: as above; conditions: source organism: Dengue virus 2 Jamaica/1409/1983
HLA-A*23:01 = experiment: IEDB peptide-MHC binding, purified MHC/competitive/fluorescence; filed as Kd, often an IC50 or EC50 that approximates it; ≥ and ≤ were set here for values at or beyond the usual limits of such assays
HLA-B*15:17 = experiment: as above; conditions: source organism: Entamoeba histolytica HM-1:IMSS
HLA-C*04:01 = experiment: as above; conditions: source organism: Giardia lamblia ATCC 50803
HLA-A*01:01 = experiment: IEDB peptide-MHC binding, purified MHC/direct/fluorescence; filed as Kd, often an IC50 or EC50 that approximates it; ≥ and ≤ were set here for values at or beyond the usual limits of such assays; conditions: source organism: Giardia lamblia ATCC 50803
[8] = source organism: Vibrio cholerae 2740-80
[9] = source organism: Mycobacterium tuberculosis variant bovis BCG str. Pasteur 1173P2
[10] = source organism: human gammaherpesvirus 4
[11] = source organism: Vibrio antiquarius
[12] = source organism: dengue virus type 1
[13] = source organism: Entamoeba histolytica HM-1:IMSS
[14] = source organism: Giardia lamblia ATCC 50803
[15] = source organism: Human herpesvirus 4 strain B95-8

Sequence: CERYGFPAS
- Kd (HLA-B*39:01; [8]): ≥ 20 µM
- Kd (HLA-A*02:12; [8]): ≥ 20 µM
- Kd (HLA-A*02:19; [8]): ≥ 20 µM
- Kd (HLA-A*02:16; [8]): ≥ 20 µM
- Kd (HLA-B*51:01; [8]): ≥ 20 µM
- Kd (HLA-A*29:02; [8]): ≥ 20 µM
- Kd (HLA-A*68:02 [1]; [8]): ≥ 20 µM
- Kd (HLA-B*18:01; [8]): 0.0433 µM
- Kd (HLA-A*02:11; [8]): ≥ 20 µM
- Kd (HLA-B*46:01; [8]): ≥ 20 µM
- Kd (HLA-A*03:01; [8]): ≥ 20 µM
- Kd (HLA-A*69:01; [8]): ≥ 20 µM
- Kd (HLA-A*02:03 [2]; [8]): ≥ 20 µM
- Kd (HLA-A*02:01 [3]; [8]): ≥ 20 µM
- Kd (HLA-B*15:01; [8]): ≥ 20 µM
- Kd (HLA-B*27:03; [8]): ≥ 20 µM
- Kd (HLA-B*57:01; [8]): ≥ 20 µM
- Kd (HLA-A*26:01; [8]): ≥ 20 µM

Sequence: DEGFHAATV
- Kd (HLA-B*39:01; [9]): ≥ 20 µM
- Kd (HLA-A*02:12; [9]): ≥ 20 µM
- Kd (HLA-A*02:19; [9]): ≥ 20 µM
- Kd (HLA-A*02:16; [9]): ≥ 20 µM
- Kd (HLA-A*29:02; [9]): ≥ 20 µM
- Kd (HLA-A*24:03; [9]): ≥ 20 µM
- Kd (HLA-B*18:01; [9]): 0.0788 µM
- Kd (HLA-A*02:11; [9]): ≥ 20 µM
- Kd (HLA-B*46:01; [9]): ≥ 20 µM
- Kd (HLA-A*03:01; [9]): ≥ 20 µM
- Kd (HLA-A*02:03 [2]; [9]): ≥ 20 µM
- Kd (HLA-A*02:01 [3]; [9]): ≥ 20 µM
- Kd (HLA-B*15:01; [9]): ≥ 20 µM
- Kd (HLA-B*27:03; [9]): ≥ 20 µM
- Kd (HLA-B*57:01; [9]): ≥ 20 µM
- Kd (HLA-A*26:01; [9]): ≥ 20 µM

Sequence: EVFFGLSRY
- Kd (HLA-A*32:15; [10]): 0.0269 µM
- Kd (HLA-B*83:01; [10]): ≥ 5 µM
- Kd (HLA-A*68:23; [10]): ≤ 0.0001 µM
- Kd (HLA-B*45:06; [10]): ≥ 5 µM
- Kd (HLA-B*15:42; [10]): ≥ 5 µM
- Kd (HLA-A*02:01 [4]): ≥ 10 µM

Sequence: FAMTVPLLI
- Kd (HLA-B*39:01; [11]): 0.009 µM
- Kd (HLA-B*58:01; [11]): 0.0014 µM
- Kd (HLA-B*51:01; [11]): 0.126 µM
- Kd (HLA-A*02:01 [3]; [11]): 0.0027 µM
- Kd (HLA-B*15:01; [11]): ≥ 20 µM
- Kd (HLA-C*06:02; [11]): 0.026 µM
- Kd (HLA-C*05:01; [11]): ≤ 0.001 µM

Sequence: FLNPVIYTF
- Kd (HLA-A*32:15; source organism: Homo sapiens): 0.024 µM
- Kd (HLA-B*83:01; source organism: Homo sapiens): 0.24 µM
- Kd (HLA-B*45:06; source organism: Homo sapiens): ≥ 5 µM
- Kd (HLA-A*03:01; source organism: Homo sapiens): ≥ 20 µM
- Kd (HLA-B*15:42; source organism: Homo sapiens): ≥ 5 µM
- Kd (HLA-A*02:01 [3]; source organism: Homo sapiens): 0.0016 µM
- Kd (HLA-B*27:03; source organism: Homo sapiens): ≥ 20 µM
- Kd (HLA-A*26:01; source organism: Homo sapiens): ≥ 20 µM
- Kd (HLA-C*12:03): 0.029 µM

Sequence: FTMRLLSPV
- Kd (HLA-A*32:15; [12]): 0.116 µM
- Kd (HLA-B*83:01; [12]): ≥ 5 µM
- Kd (HLA-B*45:06; [12]): ≥ 5 µM
- Kd (HLA-B*46:01; [12]): 0.015 µM
- Kd (HLA-B*15:42; [12]): ≥ 5 µM
- Kd (HLA-C*06:02; [12]): ≥ 20 µM
- Kd (HLA-C*05:01; [12]): 2.29 µM
- Kd (HLA-C*08:02; [12]): 0.316 µM
- Kd (HLA-C*14:02): 0.098 µM
- Kd (HLA-A*02:06): 0.00432 µM
- Kd (HLA-A*02:17): 0.0298 µM
- Kd (HLA-A*68:02 [5]): 0.00078 µM
- Kd (HLA-A*02:03 [6]): 0.00344 µM
- Kd (HLA-A*02:01 [7]): 0.00156 µM

Sequence: KVSVGSYFC
- Kd (HLA-B*39:01; [13]): ≥ 20 µM
- Kd (HLA-A*02:12; [13]): ≥ 20 µM
- Kd (HLA-A*02:19; [13]): ≥ 20 µM
- Kd (HLA-A*02:16; [13]): 9 µM
- Kd (HLA-B*51:01; [13]): ≥ 20 µM
- Kd (HLA-A*29:02; [13]): ≥ 20 µM
- Kd (HLA-A*68:02 [1]; [13]): ≥ 20 µM
- Kd (HLA-A*24:03; [13]): ≥ 20 µM
- Kd (HLA-B*18:01; [13]): ≥ 20 µM
- Kd (HLA-A*02:11; [13]): ≥ 20 µM
- Kd (HLA-B*46:01; [13]): ≥ 20 µM
- Kd (HLA-A*03:01; [13]): ≥ 20 µM
- Kd (HLA-A*23:01; [13]): ≥ 20 µM
- Kd (HLA-A*69:01; [13]): ≥ 20 µM
- Kd (HLA-B*15:17): ≥ 20 µM
- Kd (HLA-A*02:03 [2]; [13]): ≥ 20 µM
- Kd (HLA-A*02:01 [3]; [13]): ≥ 20 µM
- Kd (HLA-B*15:01; [13]): ≥ 20 µM
- Kd (HLA-B*27:03; [13]): ≥ 20 µM
- Kd (HLA-B*57:01; [13]): ≥ 20 µM
- Kd (HLA-A*26:01; [13]): ≥ 20 µM

Sequence: MTDVDLNYY
- Kd (HLA-B*83:01; [14]): ≥ 5 µM
- Kd (HLA-A*68:23; [14]): 0.002 µM
- Kd (HLA-B*45:06; [14]): ≥ 5 µM
- Kd (HLA-B*15:42; [14]): ≥ 5 µM
- Kd (HLA-C*04:01): ≥ 5 µM
- Kd (HLA-A*01:01): ≤ 0.001 µM
- Kd (HLA-C*08:02; [14]): ≥ 20 µM

Sequence: VSFIEFVGW
- Kd (HLA-B*58:01; [15]): 0.0011 µM
- Kd (HLA-A*23:01; [15]): 0.0629 µM
- Kd (HLA-B*57:01; [15]): 0.0249 µM
